According to PMC10018365, “Cryo-EM structure of the fully assembled Elongator complex” (Nucleic Acids Research, 2023):

Assays:
Conditions in all cases: both partners purified
[1] = molecular target: T1, Mus musculus Elp123 subcomplex (Mus musculus, UniProt Q7TT37 1-1333; Q91WG4 1-831; Q9CZX0 1-547); experiment: cryo-EM structure; MmElongator reconstituted from purified MmElp123 and MmElp456 and re-purified by gel filtration, 5.9 Å
T1 construct: Elp1, mouse, ORF; Elp2, mouse, ORF; Elp3, mouse, ORF; Gel filtration at about 610 kDa; also called MmElp123; mouse Elp123; source: Super Sf9-1 insect cells (baculovirus, biGBac), purified (StrepTrap, heparin, Superose 6); not shown: Twin-Strep-tag, C-terminal, kept; copies: 2 + 2 + 2

[2] = molecular target: T2, Saccharomyces cerevisiae Elp2 (Saccharomyces cerevisiae, UniProt P42935 1-788); experiment: cryo-EM structure; ScElp123 with yeast tRNA Ala UGC (3-5 molar excess, 15 min on ice), 3.96 Å
T2 construct: Elp2, S. cerevisiae, full-length ORF; also called ScElp2; source: S. cerevisiae DS1-2b, overexpressed, purified within ScElongator
T2 sequence (looked up): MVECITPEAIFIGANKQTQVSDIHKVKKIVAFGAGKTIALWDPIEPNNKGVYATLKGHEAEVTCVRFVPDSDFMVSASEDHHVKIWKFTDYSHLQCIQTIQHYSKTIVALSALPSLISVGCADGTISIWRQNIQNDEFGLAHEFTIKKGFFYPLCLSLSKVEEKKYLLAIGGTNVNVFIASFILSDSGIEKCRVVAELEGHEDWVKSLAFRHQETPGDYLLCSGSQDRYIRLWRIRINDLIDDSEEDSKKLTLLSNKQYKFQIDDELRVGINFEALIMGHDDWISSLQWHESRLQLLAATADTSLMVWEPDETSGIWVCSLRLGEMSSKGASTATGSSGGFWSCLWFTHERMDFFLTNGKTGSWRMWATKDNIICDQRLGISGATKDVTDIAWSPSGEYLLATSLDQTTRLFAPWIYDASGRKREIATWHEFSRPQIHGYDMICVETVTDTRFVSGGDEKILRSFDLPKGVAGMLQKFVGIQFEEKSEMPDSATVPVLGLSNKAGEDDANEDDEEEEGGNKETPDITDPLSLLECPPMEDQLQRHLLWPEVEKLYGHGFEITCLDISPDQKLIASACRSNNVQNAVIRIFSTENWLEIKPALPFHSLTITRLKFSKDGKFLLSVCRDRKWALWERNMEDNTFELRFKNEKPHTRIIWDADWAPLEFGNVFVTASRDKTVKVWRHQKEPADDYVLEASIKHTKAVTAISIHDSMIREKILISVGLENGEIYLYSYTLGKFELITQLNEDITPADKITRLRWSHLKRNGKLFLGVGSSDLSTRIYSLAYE

[3] = molecular target: T3, Saccharomyces cerevisiae Elp1 (Saccharomyces cerevisiae, UniProt Q06706 1-1349); experiment: as above
T3 construct: Elp1, S. cerevisiae, full-length ORF; also called ScElp1; source: S. cerevisiae DS1-2b, overexpressed, purified within ScElongator
T3 sequence (looked up): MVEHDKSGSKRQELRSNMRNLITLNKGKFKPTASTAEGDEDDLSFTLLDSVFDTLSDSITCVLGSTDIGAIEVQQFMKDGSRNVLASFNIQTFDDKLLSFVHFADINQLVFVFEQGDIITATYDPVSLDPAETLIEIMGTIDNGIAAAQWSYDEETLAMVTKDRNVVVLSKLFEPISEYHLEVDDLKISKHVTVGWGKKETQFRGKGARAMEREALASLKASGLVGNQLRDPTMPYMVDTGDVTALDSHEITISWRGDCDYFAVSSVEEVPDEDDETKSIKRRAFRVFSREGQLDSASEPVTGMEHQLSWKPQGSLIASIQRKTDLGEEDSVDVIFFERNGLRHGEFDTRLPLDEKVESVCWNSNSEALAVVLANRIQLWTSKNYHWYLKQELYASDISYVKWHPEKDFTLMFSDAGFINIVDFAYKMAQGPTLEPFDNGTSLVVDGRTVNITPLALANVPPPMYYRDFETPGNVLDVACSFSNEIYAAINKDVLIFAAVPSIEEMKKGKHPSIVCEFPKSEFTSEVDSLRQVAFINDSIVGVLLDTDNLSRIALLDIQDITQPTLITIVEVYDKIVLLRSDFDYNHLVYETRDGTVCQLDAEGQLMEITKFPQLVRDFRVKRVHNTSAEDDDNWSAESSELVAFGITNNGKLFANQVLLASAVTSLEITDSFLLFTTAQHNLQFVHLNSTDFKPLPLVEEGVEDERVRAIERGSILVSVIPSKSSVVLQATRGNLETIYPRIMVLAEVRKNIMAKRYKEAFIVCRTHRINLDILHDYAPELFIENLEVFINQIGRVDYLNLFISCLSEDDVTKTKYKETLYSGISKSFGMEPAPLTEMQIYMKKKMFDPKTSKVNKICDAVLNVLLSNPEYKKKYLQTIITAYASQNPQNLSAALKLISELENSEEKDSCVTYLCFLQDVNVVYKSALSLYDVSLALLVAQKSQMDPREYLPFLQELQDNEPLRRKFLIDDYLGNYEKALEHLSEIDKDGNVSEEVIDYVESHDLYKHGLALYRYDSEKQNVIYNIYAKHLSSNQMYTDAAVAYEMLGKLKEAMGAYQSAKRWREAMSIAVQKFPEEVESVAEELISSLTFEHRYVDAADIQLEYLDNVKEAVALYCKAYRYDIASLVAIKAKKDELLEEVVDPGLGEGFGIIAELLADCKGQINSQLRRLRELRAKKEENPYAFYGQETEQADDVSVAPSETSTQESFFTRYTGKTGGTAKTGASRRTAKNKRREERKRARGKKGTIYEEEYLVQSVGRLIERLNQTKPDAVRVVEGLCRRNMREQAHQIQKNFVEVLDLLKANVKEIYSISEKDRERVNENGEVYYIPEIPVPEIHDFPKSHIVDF

[4] = molecular target: T4, Homo sapiens Elp123 subcomplex with Elp1 Δ1132–1224 (Homo sapiens, UniProt O95163 1-1332; Q6IA86 1-826; Q9H9T3 1-547, Δ1132–1224); experiment: pull-down; 10 μg bait, 20 μg prey; Elp123 on StrepTactin Sepharose by Twin-Strep-tagged Elp3, or Elp456 on anti-DYKDDDDK resin by FLAG-tagged Elp6; 30-60 min at 4°C; washes in 20 mM HEPES pH 7.5, 100 mM NaCl, 1 mM DTT, 0.05% Tween 20; SDS-PAGE with Coomassie or silver stain; also with ATP and bulk tRNA
T4 construct: Elp2, human, ORF; Elp3, human, ORF; source: Sf9-3 insect cells (baculovirus, biGBac), purified (StrepTrap, heparin, Superose 6); not shown: Twin-Strep-tag, C-terminal, kept; copies: 2 + 2 + 2
T4 sequence (O95163 other isoform, or with tags, fused parts or gaps Δ1132–1224 | Δ1132–1224 | mutant, chain 1 of 3): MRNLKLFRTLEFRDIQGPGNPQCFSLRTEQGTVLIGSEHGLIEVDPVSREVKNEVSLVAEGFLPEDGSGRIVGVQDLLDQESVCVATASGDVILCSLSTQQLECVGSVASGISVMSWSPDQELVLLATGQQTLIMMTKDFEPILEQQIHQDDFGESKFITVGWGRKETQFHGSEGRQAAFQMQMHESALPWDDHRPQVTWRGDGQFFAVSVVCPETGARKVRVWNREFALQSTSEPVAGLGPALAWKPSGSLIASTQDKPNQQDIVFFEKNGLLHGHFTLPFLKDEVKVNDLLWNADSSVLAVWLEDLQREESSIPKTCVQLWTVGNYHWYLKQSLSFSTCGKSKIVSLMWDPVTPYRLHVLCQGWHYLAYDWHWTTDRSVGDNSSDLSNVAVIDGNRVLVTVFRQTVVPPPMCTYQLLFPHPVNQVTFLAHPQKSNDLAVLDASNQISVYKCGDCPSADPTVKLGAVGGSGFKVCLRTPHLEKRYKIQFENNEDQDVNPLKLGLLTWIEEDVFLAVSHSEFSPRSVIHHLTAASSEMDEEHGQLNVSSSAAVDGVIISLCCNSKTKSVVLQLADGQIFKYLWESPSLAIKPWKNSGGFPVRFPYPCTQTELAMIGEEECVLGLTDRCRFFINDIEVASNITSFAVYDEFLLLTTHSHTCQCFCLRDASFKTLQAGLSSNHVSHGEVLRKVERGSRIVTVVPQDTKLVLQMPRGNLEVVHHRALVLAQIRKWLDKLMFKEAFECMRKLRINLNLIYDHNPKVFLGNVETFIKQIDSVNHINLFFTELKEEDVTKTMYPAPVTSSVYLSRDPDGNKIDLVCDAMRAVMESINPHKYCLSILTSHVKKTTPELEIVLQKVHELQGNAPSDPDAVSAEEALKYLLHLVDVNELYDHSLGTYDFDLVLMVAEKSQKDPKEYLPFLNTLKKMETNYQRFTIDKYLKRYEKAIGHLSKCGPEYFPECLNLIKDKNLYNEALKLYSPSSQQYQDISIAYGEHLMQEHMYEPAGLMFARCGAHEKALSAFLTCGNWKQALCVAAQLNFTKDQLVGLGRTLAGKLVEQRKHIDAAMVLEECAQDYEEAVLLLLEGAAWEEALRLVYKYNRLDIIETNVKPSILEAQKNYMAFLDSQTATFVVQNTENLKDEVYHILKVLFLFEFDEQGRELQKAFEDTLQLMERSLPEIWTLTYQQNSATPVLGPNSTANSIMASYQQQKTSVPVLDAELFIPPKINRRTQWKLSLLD
T4 sequence (Q6IA86 whole entry, stated change not applied, chain 2 of 3): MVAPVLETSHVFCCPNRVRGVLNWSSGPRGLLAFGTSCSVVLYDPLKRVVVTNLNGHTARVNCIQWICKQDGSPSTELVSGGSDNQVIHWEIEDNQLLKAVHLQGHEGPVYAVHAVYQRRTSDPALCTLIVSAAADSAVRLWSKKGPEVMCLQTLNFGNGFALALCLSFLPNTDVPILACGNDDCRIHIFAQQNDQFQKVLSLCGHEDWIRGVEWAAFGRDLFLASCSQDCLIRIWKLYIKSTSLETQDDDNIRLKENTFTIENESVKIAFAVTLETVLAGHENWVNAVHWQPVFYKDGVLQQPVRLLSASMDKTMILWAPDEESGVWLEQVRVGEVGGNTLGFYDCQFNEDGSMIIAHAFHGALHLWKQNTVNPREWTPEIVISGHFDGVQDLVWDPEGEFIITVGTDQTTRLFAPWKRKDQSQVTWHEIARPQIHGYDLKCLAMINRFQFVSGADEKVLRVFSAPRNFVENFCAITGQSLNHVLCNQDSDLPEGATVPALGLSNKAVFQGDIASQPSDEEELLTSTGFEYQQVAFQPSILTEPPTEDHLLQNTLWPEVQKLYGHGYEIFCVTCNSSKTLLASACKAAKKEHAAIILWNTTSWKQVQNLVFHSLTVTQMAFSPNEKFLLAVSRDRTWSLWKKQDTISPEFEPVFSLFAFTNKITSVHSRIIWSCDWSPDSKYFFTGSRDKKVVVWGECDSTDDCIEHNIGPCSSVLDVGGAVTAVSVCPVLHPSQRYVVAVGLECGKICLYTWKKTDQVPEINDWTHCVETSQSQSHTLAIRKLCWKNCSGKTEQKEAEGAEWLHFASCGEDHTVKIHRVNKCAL
T4 sequence (Q9H9T3 whole entry, stated change not applied, chain 3 of 3): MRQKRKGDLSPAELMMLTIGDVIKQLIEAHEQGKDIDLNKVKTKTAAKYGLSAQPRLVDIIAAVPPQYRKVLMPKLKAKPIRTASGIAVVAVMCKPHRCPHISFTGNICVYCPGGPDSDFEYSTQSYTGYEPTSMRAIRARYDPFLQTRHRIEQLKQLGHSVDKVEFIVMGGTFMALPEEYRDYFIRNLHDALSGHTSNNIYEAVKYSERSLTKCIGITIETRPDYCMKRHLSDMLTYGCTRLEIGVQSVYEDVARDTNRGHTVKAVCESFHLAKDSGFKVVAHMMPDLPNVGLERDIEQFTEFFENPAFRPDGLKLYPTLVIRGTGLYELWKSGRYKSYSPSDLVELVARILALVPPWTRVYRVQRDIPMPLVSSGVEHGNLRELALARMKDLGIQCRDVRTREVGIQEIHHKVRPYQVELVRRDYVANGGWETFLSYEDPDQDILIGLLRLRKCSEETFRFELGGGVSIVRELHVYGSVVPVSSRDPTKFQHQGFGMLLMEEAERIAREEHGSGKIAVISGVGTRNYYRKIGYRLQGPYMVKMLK

[5] = molecular target: T5, Homo sapiens Elp123 subcomplex, wild type (Homo sapiens, UniProt O95163 1-1332; Q6IA86 1-826; Q9H9T3 1-547); experiment: SEC; Elp123 incubated with the respective Elp456 for 30 min at 25°C at 1:2 weight ratio, then Superose 6 Increase 10/300 GL in 20 mM HEPES pH 7.5, 100 mM NaCl, 5 mM DTT
T5 construct: Elp1, human, ORF; Elp2, human, ORF; Elp3, human, ORF; also called human Elp123; source: Sf9-3 insect cells (baculovirus, biGBac), purified (StrepTrap, heparin, Superose 6); not shown: Twin-Strep-tag, C-terminal, kept; copies: 2 + 2 + 2
T5 sequence (O95163 whole entry, chain 1 of 3): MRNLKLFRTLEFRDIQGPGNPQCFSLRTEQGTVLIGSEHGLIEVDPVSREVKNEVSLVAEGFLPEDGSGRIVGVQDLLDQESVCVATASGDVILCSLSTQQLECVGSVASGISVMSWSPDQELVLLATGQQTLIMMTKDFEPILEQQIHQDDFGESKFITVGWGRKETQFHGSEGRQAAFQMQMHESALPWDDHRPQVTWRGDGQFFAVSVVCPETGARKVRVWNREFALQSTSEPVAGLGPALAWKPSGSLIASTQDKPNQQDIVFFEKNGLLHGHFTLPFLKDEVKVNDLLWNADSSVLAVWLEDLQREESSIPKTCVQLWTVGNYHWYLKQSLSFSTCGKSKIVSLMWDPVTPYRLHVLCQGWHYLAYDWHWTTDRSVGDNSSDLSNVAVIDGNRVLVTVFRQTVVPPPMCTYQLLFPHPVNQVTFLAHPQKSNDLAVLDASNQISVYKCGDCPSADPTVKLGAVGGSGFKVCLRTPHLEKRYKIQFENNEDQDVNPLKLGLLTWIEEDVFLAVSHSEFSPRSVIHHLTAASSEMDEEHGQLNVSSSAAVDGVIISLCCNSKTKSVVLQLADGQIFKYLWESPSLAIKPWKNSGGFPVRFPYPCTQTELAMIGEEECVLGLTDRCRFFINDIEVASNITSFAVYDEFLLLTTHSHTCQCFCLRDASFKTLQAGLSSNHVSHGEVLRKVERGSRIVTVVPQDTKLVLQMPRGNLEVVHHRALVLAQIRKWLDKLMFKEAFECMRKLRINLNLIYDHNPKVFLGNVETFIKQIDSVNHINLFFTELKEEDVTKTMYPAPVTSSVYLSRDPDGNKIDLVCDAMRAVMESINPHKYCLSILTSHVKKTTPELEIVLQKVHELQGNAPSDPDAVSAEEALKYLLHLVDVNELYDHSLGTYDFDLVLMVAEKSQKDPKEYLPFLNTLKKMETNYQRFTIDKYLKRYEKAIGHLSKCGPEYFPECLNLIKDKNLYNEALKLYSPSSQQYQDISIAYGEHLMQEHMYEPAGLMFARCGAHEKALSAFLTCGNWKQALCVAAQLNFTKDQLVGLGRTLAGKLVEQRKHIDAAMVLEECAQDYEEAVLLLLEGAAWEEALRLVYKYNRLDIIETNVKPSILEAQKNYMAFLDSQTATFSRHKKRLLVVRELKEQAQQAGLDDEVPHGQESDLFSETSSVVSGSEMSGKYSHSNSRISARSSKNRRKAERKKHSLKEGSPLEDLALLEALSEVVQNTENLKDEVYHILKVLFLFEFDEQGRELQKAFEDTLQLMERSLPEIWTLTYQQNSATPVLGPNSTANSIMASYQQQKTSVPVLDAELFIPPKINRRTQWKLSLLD
T5 sequence (Q6IA86 whole entry, chain 2 of 3): as the sequence (Q6IA86 whole entry, stated change not applied, chain 2 of 3) above
T5 sequence (Q9H9T3 whole entry, chain 3 of 3): as the sequence (Q9H9T3 whole entry, stated change not applied, chain 3 of 3) above

B1: Mus musculus Elp456 subcomplex (complex)
chain 1: MAAADTCGAGTLSSRSVASEAGQGGTSSFQRKGKASGGPGGGPRLLSIAGTRPSVRNGQLLVSTGLPALDQLLGGGLAVGTLLLIEEDKYNIYSPLLFKYFMAEGIINGHTLLVASAKENPAKILQELPAPLLDDNSKKELEDVHSAKTPEPNVNMKIAWRYQLQPKMEVGPVSSSRFGHYYDLSKRIPWELLQSSKWHGFFLPEHISPDLKGESCFLSCGYMRLLEFIQKSVYAEGFDGANPQKKQKNILRIGIQNLGSPLWGDDICCKENCDNNHRLTKFLYILRGLLRSSLSACIITMPAHLVQNKSITTRVRNLSDTVVGLESFIGSERETNPLYKDYHGLIHIRKIPRLNNLTCDESDVKDLAFKLKRKLFTIERLHLPPDLSDTVGRSSKQDLAASTARLGAGCSSMAEGKKHLDF
chain 2: MLDSLLAIGGLVLLRDSVEWEGRSLLKALIKKSALRGEQVHVLGCEVSEEEFREGFDSDVNSRLVYHDLFRDPLNWSKPGEAVPEGPLKALRSMCKRTDHGSVTIALDSLSWLLCHIPCVTLCQALHALSQQNGDPGDNSLVEQVRVLGLLHEELHGPGSMGALNTLAHTEVTLSGKVDQTSASILCRRPQQRATYQTWWFSVLPDFSLTLHEGLPLRSELHPDHHTTQVDPTAHLTFNLHLSKKEREARDSLTLPFQFSSEKQKALLHPVPSRTTGHIFYEPDAFDDVDPEDPDDDLDI
chain 3: MFPELNNLLSTTPDKTEQGTLTLLCDAKTDGSFLVHHFLSFYLKANCKVCFVALVQSFSHYNIVGQKLGVSLTAARDRGQLVFLEGLKSSVEVLFHSQDEPHPLQFLREAGTGNLQSLYTFIQDTLKPADSEESPWKYPVLLVDNLSVLLSLGVGAVAVLDFMQYCRATVCCELKGNVVALVHDTEGATDEGNDTLLNGLSHQSHLILRAEGLATGFCKDVHGQLSILWRRPSRSTAQRAQSLTYQYKIQDKNVSFFAKGMSPAVL
notes: Elp4, mouse, ORF; Elp5, mouse, ORF; Elp6, mouse, ORF; Gel filtration at about 220 kDa; also called MmElp456; mouse Elp456; source: Hi-5 insect cells (baculovirus, biGBac), purified (IgG Sepharose with TEV elution, Superose 6); not shown: FLAG, C-terminal, kept; Protein A, C-terminal, cleaved; copies: 2 + 2 + 2
stoichiometry N [1]: 1

B2: Saccharomyces cerevisiae Elp3 (enzyme, UniProt Q02908 1-557, looked up)
chain: MARHGKGPKTNKKKLAPEKERFIQCCADITLELTDSLTSGTTREINLNGLITKYSKKYKLKQQPRLTDIINSIPDQYKKYLLPKLKAKPVRTASGIAVVAVMCKPHRCPHIAYTGNICVYCPGGPDSDFEYSTQSYTGYEPTSMRAIRARYDPYEQARGRVEQLKQLGHSIDKVEYVLMGGTFMSLPKEYREDFIVKLHNALSGFNGNDIDEAILYSQQSLTKCVGITIETRPDYCTQTHLDDMLKYGCTRLEIGVQSLYEDVARDTNRGHTVRSVCETFAVSKDAGYKVVSHMMPDLPNVGMERDIEQFKEYFENPDFRTDGLKIYPTLVIRGTGLYELWKTGRYKSYSANALVDLVARILALVPPWTRIYRVQRDIPMPLVTSGVDNGNLRELALARMKDLGTTCRDVRTREVGIQEVHHKVQPDQVELIRRDYYANGGWETFLSYEDPKKDILIGLLRLRKASKKYTYRKEFTSQRTSIVRELHVYGSVVPLHSRDPRKFQHQGFGTLLMEEAERIAKEEHGSEKISVISGVGVRNYYGKLGYELDGPYMSKRI
notes: Elp3, S. cerevisiae, full-length ORF; also called ScElp3; source: S. cerevisiae DS1-2b, overexpressed, purified within ScElongator; not shown: Twin-Strep-tag, C-terminal, kept
binding result [2]: binds | binding result [3]: binds

B3: Homo sapiens Elp456 subcomplex, wild type (complex)
chain 1: MAAVATCGSVAASTGSAVATASKSNVTSFQRRGPRASVTNDSGPRLVSIAGTRPSVRNGQLLVSTGLPALDQLLGGGLAVGTVLLIEEDKYNIYSPLLFKYFLAEGIVNGHTLLVASAKEDPANILQELPAPLLDDKCKKEFDEDVYNHKTPESNIKMKIAWRYQLLPKMEIGPVSSSRFGHYYDASKRMPQELIEASNWHGFFLPEKISSTLKVEPCSLTPGYTKLLQFIQNIIYEEGFDGSNPQKKQRNILRIGIQNLGSPLWGDDICCAENGGNSHSLTKFLYVLRGLLRTSLSACIITMPTHLIQNKAIIARVTTLSDVVVGLESFIGSERETNPLYKDYHGLIHIRQIPRLNNLICDESDVKDLAFKLKRKLFTIERLHLPPDLSDTVSRSSKMDLAESAKRLGPGCGMMAGGKKHLDF
chain 2: MLDSLLALGGLVLLRDSVEWEGRSLLKALVKKSALCGEQVHILGCEVSEEEFREGFDSDINNRLVYHDFFRDPLNWSKTEEAFPGGPLGALRAMCKRTDPVPVTIALDSLSWLLLRLPCTTLCQVLHAVSHQDSCPGDSSSVGKVSVLGLLHEELHGPGPVGALSSLAQTEVTLGGTMGQASAHILCRRPRQRPTDQTQWFSILPDFSLDLQEGPSVESQPYSDPHIPPVDPTTHLTFNLHLSKKEREARDSLILPFQFSSEKQQALLRPRPGQATSHIFYEPDAYDDLDQEDPDDDLDI
chain 3: MFVELNNLLNTTPDRAEQGKLTLLCDAKTDGSFLVHHFLSFYLKANCKVCFVALIQSFSHYSIVGQKLGVSLTMARERGQLVFLEGLKSAVDVVFQAQKEPHPLQFLREANAGNLKPLFEFVREALKPVDSGEARWTYPVLLVDDLSVLLSLGMGAVAVLDFIHYCRATVCWELKGNMVVLVHDSGDAEDEENDILLNGLSHQSHLILRAEGLATGFCRDVHGQLRILWRRPSQPAVHRDQSFTYQYKIQDKSVSFFAKGMSPAVL
notes: Elp4, human, ORF; Elp5, human, ORF; Elp6, human, ORF; also called human Elp456; source: Hi-5 insect cells (baculovirus, biGBac), purified (IgG Sepharose with TEV elution, Superose 6); not shown: FLAG, C-terminal, kept; Protein A, C-terminal, cleaved; copies: 2 + 2 + 2
binding result [4]: binds | binding result [5]: binds
